B4: IRBIT (IP3R-binding protein released with inositol 1,4,5-trisphosphate) in the high salt extract of mouse cerebellar crude microsome (other)
chain: SMPDAMPLPGVGEELKQAKEIEDAEKYSFMATVTKAPKKQIQFADDMQEFTKFPTKTGRRSLSRSISQSSTDSYSSAASYTDSSDDEVSPREKQQTNSKGSSNFCVKNIKQAEFGRREIEIAEQDMSALISLRKRAQGEKPLAGAKIVGCTHITAQTAVLIETLCALGAQCRWSACNIYSTQNEVAAALAEAGVAVFAWKGESEDDFWWCIDRCVNMDGWQANMILDDGGDLTHWVYKKYPNVFKKIRGIVEESVTGVHRLYQLSKAGKLCVPAMNVNDSVTKQKFDNLYCCRESILDGLKRTTDVMFGGKQVVVCGYGEVGKGCCAALKALGAIVYITEIDPICALQACMDGFRVVKLNEVIRQVDVVITCTGNKNVVTREHLDRMKNSCIVCNMGHSNTEIDVTSLRTPELTWERVRSQVDHVIWPDGKRVVLLAEGRLLNLSCSTVPTFVLSITATTQALALIELYNAPEGRYKQDVYLLPKKMDEYVASLHLPSFDAHLTELTDDQAKYLGLNKNGPFKPNYYRY
notes: Endogenous protein extracted with 500 mM NaCl from crude microsome of mouse cerebellum, not purified; sites not determined; also called IRBIT in the high salt extract

Legend:
[1] = biological target: B4; experiment: GST pulldown from high salt extract, Western blot with anti-IRBIT antibody
From the text: (§1) FIG. 9A is the schematic representation of the structure of mouse IP₃R1 and the recombinant GST fusion proteins used in this study. The IP₃ binding core region is indicated with a gray box. Putative membrane-spanning regions are indicated with solid vertical bars. Roman numbers I to V indicate the domain structure of IP₃R1 determined by the limited trypsin digestion (51). Numbers above the bars represent corresponding amino acid residue numbers. […] The high salt extract of crude microsome obtained from mouse cerebella was incubated with GST fusion proteins shown in (A). Bound proteins were pulled down with glutathione-Sepharose, eluted with glutathione, and analyzed by Western blotting using anti-IRBIT antibody. […] Bound proteins were pulled down with glutathione-Sepharose, eluted with glutathione, and then analyzed by Western blotting using anti-IRBIT antibody (upper panel). GST fusion proteins pulled down with glutathione-Sepharose were stained with Coomassie Brilliant Blue (lower panel).
(§2) For the determination of the IRBIT binding region and the critical amino acid residue of IP₃R1, the diluted high salt extract was subjected to pulldown assay as described above with 100 pmol of GST, GST-EL, GST-Ia, GST-Iab, GST-IbIIa, GST-IIab, GST-IIbIIIa, GST-IIIab, GST-IV, GST-IV-Va, K508A or R441Q, and analyzed by Western blotting with anti-IRBIT antibody.

[2] = biological target: B4; experiment: GST pulldown from the high salt extract, Western blot with anti-IRBIT antibody
From the text: as §1, §2

[3] = biological target: T1, GST-IIbIIIa (GST fusion of amino acids 600-1248 of mouse IP3R1) (mouse, UniProt P11881 600-1248); experiment: as above
T1 construct: Expressed in Escherichia coli; not shown: glutathione S-transferase (GST) tag of vector pGEX-KG
T1 sequence (P11881 600-1248): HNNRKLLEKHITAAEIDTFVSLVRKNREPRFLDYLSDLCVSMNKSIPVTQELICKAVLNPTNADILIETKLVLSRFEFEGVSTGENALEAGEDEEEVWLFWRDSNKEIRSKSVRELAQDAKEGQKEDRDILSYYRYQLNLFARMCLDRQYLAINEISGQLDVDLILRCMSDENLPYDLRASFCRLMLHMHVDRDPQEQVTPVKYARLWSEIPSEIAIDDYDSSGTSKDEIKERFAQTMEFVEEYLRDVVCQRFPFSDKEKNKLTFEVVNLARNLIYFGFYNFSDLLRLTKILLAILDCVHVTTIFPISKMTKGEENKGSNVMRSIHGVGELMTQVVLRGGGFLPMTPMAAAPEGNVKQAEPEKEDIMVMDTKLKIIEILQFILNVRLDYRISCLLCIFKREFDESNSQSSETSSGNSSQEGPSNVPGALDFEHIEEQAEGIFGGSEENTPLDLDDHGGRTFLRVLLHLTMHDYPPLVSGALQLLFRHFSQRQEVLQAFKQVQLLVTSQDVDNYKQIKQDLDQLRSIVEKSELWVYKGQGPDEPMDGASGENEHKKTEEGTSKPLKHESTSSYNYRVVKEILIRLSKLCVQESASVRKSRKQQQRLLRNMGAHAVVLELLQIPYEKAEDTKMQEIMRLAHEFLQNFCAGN
From the text: as §1, §2

[4] = biological target: T2, GST-IIIab (GST fusion of amino acids 916-1581 of mouse IP3R1) (mouse, UniProt P11881 916-1581); experiment: as above
T2 construct: Expressed in Escherichia coli; not shown: glutathione S-transferase (GST) tag of vector pGEX-KG
From the text: as §1, §2

[5] = biological target: T3, GST-IV-Va (GST fusion of amino acids 1593-2217 of mouse IP3R1) (mouse, UniProt P11881 1593-2217); experiment: as above
T3 construct: Expressed in Escherichia coli; not shown: glutathione S-transferase (GST) tag of vector pGEX-4T-1
T3 sequence (P11881 1593-2217): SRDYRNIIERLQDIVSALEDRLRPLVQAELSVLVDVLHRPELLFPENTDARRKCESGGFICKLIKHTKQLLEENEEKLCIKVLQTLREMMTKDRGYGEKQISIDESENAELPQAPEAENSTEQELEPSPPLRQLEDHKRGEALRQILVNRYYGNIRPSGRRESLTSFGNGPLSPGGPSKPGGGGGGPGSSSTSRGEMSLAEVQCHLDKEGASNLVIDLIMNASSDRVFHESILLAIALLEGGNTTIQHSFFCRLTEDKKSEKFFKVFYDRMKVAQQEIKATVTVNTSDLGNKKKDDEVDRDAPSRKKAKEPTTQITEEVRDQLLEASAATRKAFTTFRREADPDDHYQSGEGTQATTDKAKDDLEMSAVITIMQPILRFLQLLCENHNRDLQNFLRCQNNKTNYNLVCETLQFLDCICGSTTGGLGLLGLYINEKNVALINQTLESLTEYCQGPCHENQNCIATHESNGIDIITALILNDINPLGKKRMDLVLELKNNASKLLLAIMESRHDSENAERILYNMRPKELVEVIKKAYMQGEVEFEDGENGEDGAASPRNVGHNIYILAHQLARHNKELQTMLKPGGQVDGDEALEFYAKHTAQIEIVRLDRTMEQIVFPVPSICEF
From the text: as §1, §2

[6] = biological target: T4, GST-IIab (GST fusion of amino acids 341-923 of mouse IP3R1) (mouse, UniProt P11881 341-923); experiment: GST pulldown from high salt extract, Western blot with anti-IRBIT antibody
T4 construct: Expressed in Escherichia coli; not shown: glutathione S-transferase (GST) tag of vector pGEX-KG
T4 sequence (P11881 341-923): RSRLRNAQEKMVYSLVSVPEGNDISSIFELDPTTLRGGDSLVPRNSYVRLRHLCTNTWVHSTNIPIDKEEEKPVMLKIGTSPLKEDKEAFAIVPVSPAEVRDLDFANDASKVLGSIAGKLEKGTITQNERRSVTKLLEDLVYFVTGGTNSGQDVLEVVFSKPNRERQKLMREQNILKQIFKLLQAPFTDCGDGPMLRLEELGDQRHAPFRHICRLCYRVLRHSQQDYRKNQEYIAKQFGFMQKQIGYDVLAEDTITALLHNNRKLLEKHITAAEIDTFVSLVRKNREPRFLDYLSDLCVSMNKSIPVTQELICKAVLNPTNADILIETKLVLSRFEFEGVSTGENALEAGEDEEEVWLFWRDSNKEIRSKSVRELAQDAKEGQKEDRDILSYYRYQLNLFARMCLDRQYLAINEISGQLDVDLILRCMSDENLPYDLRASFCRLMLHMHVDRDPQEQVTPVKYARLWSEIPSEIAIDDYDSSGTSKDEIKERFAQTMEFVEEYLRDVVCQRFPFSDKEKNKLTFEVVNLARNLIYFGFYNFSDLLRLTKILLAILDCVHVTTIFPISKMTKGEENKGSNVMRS
From the text: as §1, §2

[7] = biological target: GST-EL (GST-IP3R1 (1-2217), GST fusion of the N-terminal 2217 amino acid residues of mouse IP3R1) (mouse, UniProt P11881 1-2217); experiment: cell-based or functional assay
Chain of GST-EL (GST-IP3R1 (1-2217), GST fusion of the N-terminal 2217 amino acid residues of mouse IP3R1) (P11881 1-2217 N1264K): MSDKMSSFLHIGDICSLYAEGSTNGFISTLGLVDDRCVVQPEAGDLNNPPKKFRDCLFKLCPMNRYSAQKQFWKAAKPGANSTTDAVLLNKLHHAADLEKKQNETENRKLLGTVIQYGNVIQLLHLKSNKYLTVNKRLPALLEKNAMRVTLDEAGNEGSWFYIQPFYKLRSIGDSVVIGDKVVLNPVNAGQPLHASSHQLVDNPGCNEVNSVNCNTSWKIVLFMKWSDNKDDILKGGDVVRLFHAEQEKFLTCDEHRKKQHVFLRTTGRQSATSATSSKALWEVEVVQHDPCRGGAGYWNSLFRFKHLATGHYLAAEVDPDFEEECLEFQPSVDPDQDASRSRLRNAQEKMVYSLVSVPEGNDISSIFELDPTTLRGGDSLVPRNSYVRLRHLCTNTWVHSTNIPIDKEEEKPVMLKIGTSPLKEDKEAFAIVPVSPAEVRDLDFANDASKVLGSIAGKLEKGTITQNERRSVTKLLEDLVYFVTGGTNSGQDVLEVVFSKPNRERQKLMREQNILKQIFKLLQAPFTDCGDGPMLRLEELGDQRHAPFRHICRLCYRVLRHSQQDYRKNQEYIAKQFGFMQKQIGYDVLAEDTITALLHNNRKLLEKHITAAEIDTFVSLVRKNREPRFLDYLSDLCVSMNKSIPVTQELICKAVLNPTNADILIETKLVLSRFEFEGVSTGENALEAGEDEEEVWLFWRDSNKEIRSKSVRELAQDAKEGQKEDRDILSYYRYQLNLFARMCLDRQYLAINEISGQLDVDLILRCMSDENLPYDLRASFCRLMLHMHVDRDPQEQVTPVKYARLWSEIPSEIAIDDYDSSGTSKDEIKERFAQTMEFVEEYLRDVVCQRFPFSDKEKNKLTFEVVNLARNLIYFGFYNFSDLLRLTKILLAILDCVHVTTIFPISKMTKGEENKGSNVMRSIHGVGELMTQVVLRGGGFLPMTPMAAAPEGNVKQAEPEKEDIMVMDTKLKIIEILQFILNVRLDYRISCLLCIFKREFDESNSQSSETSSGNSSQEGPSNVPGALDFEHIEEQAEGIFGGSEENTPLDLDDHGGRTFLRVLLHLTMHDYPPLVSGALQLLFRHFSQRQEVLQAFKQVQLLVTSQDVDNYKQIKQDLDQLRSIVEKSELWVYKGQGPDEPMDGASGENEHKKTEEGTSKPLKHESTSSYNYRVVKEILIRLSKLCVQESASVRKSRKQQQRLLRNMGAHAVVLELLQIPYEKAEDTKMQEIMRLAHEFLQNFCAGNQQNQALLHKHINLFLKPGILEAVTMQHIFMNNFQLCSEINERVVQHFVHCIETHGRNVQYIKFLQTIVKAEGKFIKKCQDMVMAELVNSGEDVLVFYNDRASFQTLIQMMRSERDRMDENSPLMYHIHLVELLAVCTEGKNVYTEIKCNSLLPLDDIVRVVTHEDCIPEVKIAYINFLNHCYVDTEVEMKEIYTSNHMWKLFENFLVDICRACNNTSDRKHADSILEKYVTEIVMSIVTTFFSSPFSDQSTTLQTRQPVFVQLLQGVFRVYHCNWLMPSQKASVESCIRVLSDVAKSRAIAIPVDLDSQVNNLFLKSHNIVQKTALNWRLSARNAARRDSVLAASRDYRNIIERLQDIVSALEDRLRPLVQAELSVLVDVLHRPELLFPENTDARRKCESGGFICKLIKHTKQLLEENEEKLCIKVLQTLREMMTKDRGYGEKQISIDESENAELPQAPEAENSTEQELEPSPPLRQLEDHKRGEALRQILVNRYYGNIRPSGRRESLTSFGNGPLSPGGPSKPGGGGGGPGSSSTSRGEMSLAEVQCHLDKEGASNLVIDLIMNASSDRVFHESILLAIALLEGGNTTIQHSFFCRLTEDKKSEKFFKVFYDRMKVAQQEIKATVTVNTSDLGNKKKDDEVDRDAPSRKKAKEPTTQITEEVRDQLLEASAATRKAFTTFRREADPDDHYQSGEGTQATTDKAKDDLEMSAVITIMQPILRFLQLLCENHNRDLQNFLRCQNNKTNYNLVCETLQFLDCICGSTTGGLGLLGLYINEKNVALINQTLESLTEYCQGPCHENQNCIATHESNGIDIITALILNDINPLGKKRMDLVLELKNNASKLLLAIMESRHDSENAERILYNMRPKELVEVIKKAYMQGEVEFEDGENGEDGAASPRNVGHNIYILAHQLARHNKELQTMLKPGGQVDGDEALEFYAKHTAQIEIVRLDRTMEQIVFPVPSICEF

B1: K508A (site-directed mutant of GST-IbIIa, lysine 508 of IP3R1 substituted with alanine) (receptor)
chain: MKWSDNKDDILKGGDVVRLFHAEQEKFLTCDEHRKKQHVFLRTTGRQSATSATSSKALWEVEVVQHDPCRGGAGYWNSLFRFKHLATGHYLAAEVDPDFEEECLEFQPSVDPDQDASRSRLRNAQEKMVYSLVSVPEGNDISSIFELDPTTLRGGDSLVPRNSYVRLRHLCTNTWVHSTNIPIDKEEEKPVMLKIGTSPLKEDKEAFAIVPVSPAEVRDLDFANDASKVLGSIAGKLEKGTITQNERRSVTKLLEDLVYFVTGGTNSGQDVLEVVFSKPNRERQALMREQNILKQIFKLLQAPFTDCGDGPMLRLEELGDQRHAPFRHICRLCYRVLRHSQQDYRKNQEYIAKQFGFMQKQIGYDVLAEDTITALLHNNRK
notes: not shown: The GST carrier at the N end and its vector linker
B1: no binding (tested: 100 pmol of GST fusion protein) [1].

B2: GST-IV (GST fusion of amino acids 1553-1943 of mouse IP3R1) (receptor)
chain: DLDSQVNNLFLKSHNIVQKTALNWRLSARNAARRDSVLAASRDYRNIIERLQDIVSALEDRLRPLVQAELSVLVDVLHRPELLFPENTDARRKCESGGFICKLIKHTKQLLEENEEKLCIKVLQTLREMMTKDRGYGEKQISIDESENAELPQAPEAENSTEQELEPSPPLRQLEDHKRGEALRQILVNRYYGNIRPSGRRESLTSFGNGPLSPGGPSKPGGGGGGPGSSSTSRGEMSLAEVQCHLDKEGASNLVIDLIMNASSDRVFHESILLAIALLEGGNTTIQHSFFCRLTEDKKSEKFFKVFYDRMKVAQQEIKATVTVNTSDLGNKKKDDEVDRDAPSRKKAKEPTTQITEEVRDQLLEASAATRKAFTTFRREADPDDHYQSGE
notes: Expressed in Escherichia coli; not shown: glutathione S-transferase (GST) tag of vector pGEX-KG
B2: no binding (tested: 100 pmol GST fusion protein) [2].

B3: GST-Iab (GST fusion of amino acids 1-343 of mouse IP3R1) (receptor)
chain: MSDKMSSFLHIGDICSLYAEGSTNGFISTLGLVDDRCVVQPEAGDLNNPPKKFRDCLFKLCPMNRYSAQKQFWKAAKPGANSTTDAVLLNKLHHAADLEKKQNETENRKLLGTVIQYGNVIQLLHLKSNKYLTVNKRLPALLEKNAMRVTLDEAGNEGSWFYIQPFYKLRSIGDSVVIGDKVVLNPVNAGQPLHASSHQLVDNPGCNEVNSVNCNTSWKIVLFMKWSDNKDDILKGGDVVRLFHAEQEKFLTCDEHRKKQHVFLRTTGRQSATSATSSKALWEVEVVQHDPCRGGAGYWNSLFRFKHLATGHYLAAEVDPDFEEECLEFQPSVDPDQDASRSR
notes: as for B2
B3: no binding (tested: 100 pmol of GST fusion protein) [1].

B4: no binding (tested: 100 pmol GST fusion protein) [3]; no binding (tested: 100 pmol GST fusion protein) [4]; no binding (tested: 100 pmol GST fusion protein) [5]. The binding result [6] was “no binding (tested: 100 pmol of GST fusion protein)” and the “EC50 (IP3 concentration required for half (50%)-maximal dissociation of IRBIT from GST-EL)” value [7] was about 500 nM.

B5: GST-Ia (GST fusion of amino acids 1-225 of mouse IP3R1) (receptor)
chain: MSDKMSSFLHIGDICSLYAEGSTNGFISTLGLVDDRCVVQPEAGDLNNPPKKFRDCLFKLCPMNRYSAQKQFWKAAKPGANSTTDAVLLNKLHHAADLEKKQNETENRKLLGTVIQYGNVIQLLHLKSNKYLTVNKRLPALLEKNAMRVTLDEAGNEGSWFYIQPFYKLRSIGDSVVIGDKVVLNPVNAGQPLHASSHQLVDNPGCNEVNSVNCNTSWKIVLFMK
notes: as for B2
B5: no binding (tested: 100 pmol GST fusion protein) [2].

— patent US20050181450A1 (published 2005)
